According to patent US10702592B2, “Peptides and combination of peptides for use in immunotherapy against NHL and other cancers” (Immatics Biotechnologies GmbH, priority 2016, dated 2020):

target: HLA-A*02:01 (Homo sapiens, UniProt P04439, D140Y/D185E/D98H/E176V/E277Q/G131W/G231S/I119V/I121R/I166T/I218V/L300P/L318F/N151K/N90K/P208A/P217A/Q86G/Q94H/R138H/R169H/T345S); test: MHC binding assay (UV-ligand exchange, beta2m ELISA); details: binding to HLA-A*02:01, UV-ligand exchange
Excerpt: Candidate peptides for T cell based therapies according to the present invention were further tested for their MHC binding capacity (affinity). The individual peptide-MHC complexes were produced by UV-ligand exchange, where a UV-sensitive peptide is cleaved upon UV-irradiation, and exchanged with the peptide of interest as analyzed. Only peptide candidates that can effectively bind and stabilize the peptide-receptive MHC molecules prevent dissociation of the MHC complexes. To determine the yield of the exchange reaction, an ELISA was performed based on the detection of the light chain (β2m) of stabilized MHC complexes. The assay was performed as generally described in Rodenko et al. (Rodenko et al., 2006).
96 well MAXISorp plates (NUNC) were coated over night with 2 ug/ml streptavidin in PBS at room temperature, washed 4× and blocked for 1 h at 37° C. in 2% BSA containing blocking buffer. Refolded HLA-A*02:01/MLA-001 monomers served as standards, covering the range of 15-500 ng/ml. Peptide-MHC monomers of the UV-exchange reaction were diluted 100 fold in blocking buffer. Samples were incubated for 1 h at 37° C., washed four times, incubated with 2 ug/ml HRP conjugated anti-β2m for 1 h at 37° C., washed again and detected with TMB solution that is stopped with […]. Absorption was measured at 450 nm. Candidate peptides that show a high exchange yield (preferably higher than 50%, most preferred higher than 75%) are generally preferred for a generation and production of antibodies or fragments thereof, and/or T cell receptors or fragments thereof, as they show sufficient avidity to the MHC molecules and prevent dissociation of the MHC complexes.

Substance	Peptide exchange (MHC class I binding score, peptide exchange yield)
108 (YLAPENGYLM; listed as Homo sapiens) [compound 108]	“+++” (≥50 = +++)
109 (YLFQFSAAL; listed as Homo sapiens) [compound 109]	“+++” (≥50 = +++)
110 (YQYPFVLGL; listed as Homo sapiens) [compound 110]	“++++” (≥75% = ++++)
111 (YLLDTLLSL; listed as Homo sapiens) [compound 111]	“+++” (≥50 = +++)
112 (FLAILPEEV; listed as Homo sapiens) [compound 112]	“+++” (≥50 = +++)
113 (FVIDSFEEL; listed as Homo sapiens) [compound 113]	“+++” (≥50 = +++)
114 (GLSDISPST; listed as Homo sapiens) [compound 114]	“++” (≥20% = ++)
115 (LLIDIIHFL; listed as Homo sapiens) [compound 115]	“++++” (≥75% = ++++)
116 (SLLDNLLTI; listed as Homo sapiens) [compound 116]	“+++” (≥50 = +++)
117 (VLATILAQL; listed as Homo sapiens) [compound 117]	“++++” (≥75% = ++++)
118 (VLDGMIYAI; listed as Homo sapiens) [compound 118]	“+++” (≥50 = +++)
119 (ELCDIILRV; listed as Homo sapiens) [compound 119]	“+++” (≥50 = +++)
120 (VLLGTTWAL; listed as Homo sapiens) [compound 120]	“+++” (≥50 = +++)
121 (YLTGYNFTL; listed as Homo sapiens) [compound 121]	“+++” (≥50 = +++)
122 (AISEAQESV; listed as Homo sapiens) [compound 122]	“++” (≥20% = ++)
123 (ALLSAFVQL; listed as Homo sapiens) [compound 123]	“+++” (≥50 = +++)
124 (FLGVVVPTV; listed as Homo sapiens) [compound 124]	“+++” (≥50 = +++)
125 (FVAPPTAAV; listed as Homo sapiens) [compound 125]	“+++” (≥50 = +++)
127 (HLMEENMIVYV; listed as Homo sapiens) [compound 127]	“+++” (≥50 = +++)
128 (KLFDASPTFFA; listed as Homo sapiens) [compound 128]	“+++” (≥50 = +++)
129 (SLFEASQQL; listed as Homo sapiens) [compound 129]	“+++” (≥50 = +++)

Substance	Peptide exchange (MHC class I binding score, peptide exchange yield)
130 (VIFSYVLGV; listed as Homo sapiens) [compound 130]	“+++” (≥50 = +++)
131 (VLIEETDQL; listed as Homo sapiens) [compound 131]	“++” (≥20% = ++)
132 (VLQDQVDEL; listed as Homo sapiens) [compound 132]	“++” (≥20% = ++)
133 (ALEELTGFREL; listed as Homo sapiens) [compound 133]	“++” (≥20% = ++)
134 (ALGRLGILSV; listed as Homo sapiens) [compound 134]	“+++” (≥50 = +++)
135 (ALTGLQFQL; listed as Homo sapiens) [compound 135]	“+++” (≥50 = +++)
136 (FIFGIVHLL; listed as Homo sapiens) [compound 136]	“+++” (≥50 = +++)
137 (FIQQERFFL; listed as Homo sapiens) [compound 137]	“+++” (≥50 = +++)
138 (NLINNIFEL; listed as Homo sapiens) [compound 138]	“++++” (≥75% = ++++)
139 (FLASPLVAI; listed as Homo sapiens) [compound 139]	“++++” (≥75% = ++++)
140 (FLFEDFVEV; listed as Homo sapiens) [compound 140]	“+++” (≥50 = +++)
141 (FLGELTLQL; listed as Homo sapiens) [compound 141]	“+++” (≥50 = +++)
142 (FLYEDSKSVRL; listed as Homo sapiens) [compound 142]	“+++” (≥50 = +++)
143 (TLHAVDVTL; listed as Homo sapiens) [compound 143]	“+++” (≥50 = +++)
144 (GLITQVDKL; listed as Homo sapiens) [compound 144]	“+++” (≥50 = +++)
145 (GLLHEVVSL; listed as Homo sapiens) [compound 145]	“+++” (≥50 = +++)
146 (GLLQQPPAL; listed as Homo sapiens) [compound 146]	“+++” (≥50 = +++)
147 (GLSEYQRNFL; listed as Homo sapiens) [compound 147]	“+++” (≥50 = +++)
148 (ICAGHVPGV; listed as Homo sapiens) [compound 148]	“+++” (≥50 = +++)
149 (ILNPVTTKL; listed as Homo sapiens) [compound 149]	“+++” (≥50 = +++)
150 (ILSEKEYKL; listed as Homo sapiens) [compound 150]	“+++” (≥50 = +++)

Substance	Peptide exchange (MHC class I binding score, peptide exchange yield)
151 (ILVKQSPML; listed as Homo sapiens) [compound 151]	“+++” (≥50 = +++)
152 (KIMYTLVSV; listed as Homo sapiens) [compound 152]	“++” (≥20% = ++)
153 (KLLKGIYAI; listed as Homo sapiens) [compound 153]	“+++” (≥50 = +++)
154 (KLMNIQQQL; listed as Homo sapiens) [compound 154]	“+++” (≥50 = +++)
155 (KLMTSLVKV; listed as Homo sapiens) [compound 155]	“+++” (≥50 = +++)
156 (KMLEDDLKL; listed as Homo sapiens) [compound 156]	“+++” (≥50 = +++)
157 (KVLEFLAKV; listed as Homo sapiens) [compound 157]	“+++” (≥50 = +++)
158 (KVQDVLHQV; listed as Homo sapiens) [compound 158]	“+++” (≥50 = +++)
159 (LLLSDSGFYL; listed as Homo sapiens) [compound 159]	“+++” (≥50 = +++)
160 (LLPPPSPAA; listed as Homo sapiens) [compound 160]	“+++” (≥50 = +++)
161 (NLMLELETV; listed as Homo sapiens) [compound 161]	“+++” (≥50 = +++)
162 (RLADLKVSI; listed as Homo sapiens) [compound 162]	“++++” (≥75% = ++++)
163 (SIFDAVLKGV; listed as Homo sapiens) [compound 163]	“++++” (≥75% = ++++)
164 (SLFDGAVISTV; listed as Homo sapiens) [compound 164]	“+++” (≥50 = +++)
165 (KLLEEIEFL; listed as Homo sapiens) [compound 165]	“+++” (≥50 = +++)
167 (SLFSITKSV; listed as Homo sapiens) [compound 167]	“+++” (≥50 = +++)
168 (SLLSPLLSV; listed as Homo sapiens) [compound 168]	“+++” (≥50 = +++)
169 (SSLEENLLHQV; listed as Homo sapiens) [compound 169]	“+++” (≥50 = +++)
171 (TLLDVISAL; listed as Homo sapiens) [compound 171]	“++++” (≥75% = ++++)
